Test results from article doi:10.1101/2023.08.28.555152.
Read-outs that look alike come from different tables or passages of the source.

What was measured:
Assay in all cases: MST
[1] = target: FITC-labeled IST1 (recombinant full-length IST1)
[2] = target: FITC-labeled IST1 (recombinant full-length IST1); remark: listed apart in the source
[3] = target: FITC-labeled IST1 (recombinant full-length IST1); remark: listed apart in the source

Kd [1]: 20.3 µM
Kd [2]: 9 µM
Kd [3]: 153 µM
B1: CHMP1B (recombinant full length) (natural protein)
chain: MSNMEKHLFNLKFAAKELSRSAKKCDKEEKAEKAKIKKAIQKGNMEVARIHAENAIRQKNQAVNFLRMSARVDAVAARVQTAVTMGKVTKSMAGVVKSMDATLKTMNLEKISALMDKFEHQFETLDVQTQQMEDTMSSTTTLTTPQNQVDMLLQEMADEAGLDLNMELPQGQTGSVGTSVASAEQDELSQRLARLRDQV
